Experimental findings from article PMC11722267 are described below.

This assay addresses 5-FAM-labelled VISTA WT peptide (fluorescence polarization probe) (human). The assay can be described thus: fluorescence polarisation.

Sequence of 5-FAM-labelled VISTA WT peptide (fluorescence polarization probe) (human) (Q9H7M9 232-258): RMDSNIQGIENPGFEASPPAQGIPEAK

Take “recombinant NUMB PTB domain (domain or fragment)”: the Kd (as a rule, the concentration at which binding is half-saturated) is 5.5 µM.
